The source of these data is patent US10329548B2, “Fungal cellobiohydrolases” (Alliance for Sustainable Energy, LLC, priority 2017, dated 2019).

What all share (format): biochemical, Trichoderma reesei
Substrate in data set [1]: [H][C@@]1(O[C@H]2[C@H](O)[C@@H](O)[C@H](Oc3ccc([N+](=O)[O-])cc3)O[C@@H]2CO)O[C@H](CO)[C@H](O)[C@H](O)[C@H]1O
In words: pNP-Lactopyranoside (pNP-L) assay, kinetics, TrCel7A 1-1d. Particulars: other: TrCel7A 1-1d, 45° C., 30 minutes, pNP-L 8 mM-0.133 mM. The source says:
(§1) The wild-type (wt) TrCel7A sequence was aligned with all the high-pNP-L activity sequences in order to identify the corresponding positions of mutations in TrCel7A. Without being bound by theory, these mutations should result in improving pNP-L activity of TrCel7A. PCR-based point mutagenesis or gene synthesis was used to generate the corresponding 9 TrCel7A mutants.
(§2) Cel7A was purified as described in Linger et al., Biotechnol Biofuels 8:45 (2015). Briefly, fermentation broths (˜8 to 10 L) were harvested, vacuum filtered, concentrated, and then loaded onto a 26/10 Phenyl Sepharose Fast Flow column. Buffer A was 20 mM Bis-Tris pH 6.5 and buffer B was 20 mM Bis-Tris pH 6.5, 2.0 M (NH4)2SO4. After binding and washing, a descending gradient of 80% B (1.6 M (NH4)2SO4) to 0% B over eight column volumes was used to elute the bound proteins from the column. Active fractions were identified by a p-nitrophenyl-β-(1-4)-D-lactopyranoside (pNP-L) activity assay. The pNP-L-active fractions were pooled and concentrated as needed. Protein was desalted and exchanged into 20 mM Bis-Tris buffer pH 6.5. […]
(§3) The pNP-L assay was performed by incubating 150 μL of 2 mM pNP-L with 25 μL of sample at 45° C. for 30 minutes. Reactions were quenched with 25 μL of 1 M Na2CO3, and the absorbance at 405 nm was measured. […]

Substrate in data set [2]: [H][C@@]1(O[C@H]2[C@H](O)[C@@H](O)[C@H](Oc3ccc([N+](=O)[O-])cc3)O[C@@H]2CO)O[C@H](CO)[C@H](O)[C@H](O)[C@H]1O
In words: pNP-Lactopyranoside (pNP-L) assay, kinetics, TrCel7A 1-11. Particulars: other: TrCel7A 1-11, 45° C., 30 minutes, pNP-L 8 mM-0.133 mM.
Text: as §1, §2, §3

Substrate in data set [3]: [H][C@@]1(O[C@H]2[C@H](O)[C@@H](O)[C@H](Oc3ccc([N+](=O)[O-])cc3)O[C@@H]2CO)O[C@H](CO)[C@H](O)[C@H](O)[C@H]1O
In words: pNP-Lactopyranoside (pNP-L) assay, kinetics, TrCel7A 11-35a. Particulars: other: TrCel7A 11-35a, 45° C., 30 minutes, pNP-L 8 mM-0.133 mM.
Text: as §1, §2, §3

Substrate in data set [4]: [H][C@@]1(O[C@H]2[C@H](O)[C@@H](O)[C@H](Oc3ccc([N+](=O)[O-])cc3)O[C@@H]2CO)O[C@H](CO)[C@H](O)[C@H](O)[C@H]1O
In words: pNP-Lactopyranoside (pNP-L) assay, kinetics, TrCel7A 6-53a. Particulars: other: TrCel7A 6-53a, 45° C., 30 minutes, pNP-L 8 mM-0.133 mM.
Text: as §1, §2, §3

Substrate in data set [5]: [H][C@@]1(O[C@H]2[C@H](O)[C@@H](O)[C@H](Oc3ccc([N+](=O)[O-])cc3)O[C@@H]2CO)O[C@H](CO)[C@H](O)[C@H](O)[C@H]1O
The data set can be described thus: pNP-Lactopyranoside (pNP-L) assay, kinetics, TrCel7A 6-87a. The note with it: other: TrCel7A 6-87a, 45° C., 30 minutes, pNP-L 8 mM-0.133 mM.
Text: as §1, §2, §3

Substrate in data set [6]: [H][C@@]1(O[C@H]2[C@H](O)[C@@H](O)[C@H](Oc3ccc([N+](=O)[O-])cc3)O[C@@H]2CO)O[C@H](CO)[C@H](O)[C@H](O)[C@H]1O
In words: pNP-Lactopyranoside (pNP-L) assay, kinetics, TrCel7A WT. The note with it: other: TrCel7A WT, 45° C., 30 minutes, pNP-L 8 mM-0.133 mM. The procedure:
as §2, with “6.5. This sample was then loaded onto a Tricorn 10/100 anion exchange column packed with Source 15Q and eluted with a 0-50% salt gradient over 30 column volumes. Buffers were 20 mM Bis-Tris pH 6.5 (A) and the same supplemented with 1.0 M NaCl (B). pNP-L activity was followed again to identify the active fractions.” for “6.5.”
as §3

Substrate in data set [7]: [H][C@@]1(O[C@H]2[C@H](O)[C@@H](O)[C@H](Oc3ccc([N+](=O)[O-])cc3)O[C@@H]2CO)O[C@H](CO)[C@H](O)[C@H](O)[C@H]1O
The data set can be described thus: pNP-Lactopyranoside (pNP-L) assay, kinetics, TrCel7A 2-18c. Particulars: other: TrCel7A 2-18c, 45° C., 30 minutes, pNP-L 8 mM-0.133 mM.
Text: as §1, §2, §3

B1: Trichoderma reesei Cel7A (TrCel7A, SEQ ID NO: 37) variant 1-1d, A241V (with secretion signal) / A224V (without secretion signal) (Trichoderma reesei RUT C-30; … (protein)
chain: QSACTLQSETHPPLTWQKCSSGGTCTQQTGSVVIDANWRWTHATNSSTNCYDGNTWSSTLCPDNETCAKNCCLDGAAYASTYGVTTSGNSLSIGFVTQSAQKNVGARLYLMASDTTYQEFTLLGNEFSFDVDVSQLPCGLNGALYFVSMDADGGVSKYPTNTAGAKYGTGYCDSQCPRDLKFINGQANVEGWEPSSNNANTGIGGHGSCCSEMDIWEANSISEVLTPHPCTTVGQEICEGDGCGGTYSDNRYGGTCDPDGCDWNPYRLGNTSFYGPGSSFTLDTTKKLTVVTQFETSGAINRYYVQNGVTFQQPNAELGSYSGNELNDDYCTAEEAEFGGSSFSDKGGLTQFKKATSGGMVLVMSLWDDYYANMLWLDSTYPTNETSSTPGAVRGSCSTSSGVPAQVESQSPNAKVTFSNIKFGPIGSTGNPSGGNPPGGNPPGTTTTRRPATTTGSSPGPTQSHYGQCGGIGYSGPTVCASGTTCQVLNPYYSQCL
B1: in data set [1], the kcat turned out to be 0.933 ± 0.0667 s⁻¹.

B2: Trichoderma reesei Cel7A (TrCel7A, SEQ ID NO: 37) variant 1-11, L366M (with secretion signal) / L349M (without secretion signal) (Trichoderma reesei RUT C-30; … (protein)
chain: QSACTLQSETHPPLTWQKCSSGGTCTQQTGSVVIDANWRWTHATNSSTNCYDGNTWSSTLCPDNETCAKNCCLDGAAYASTYGVTTSGNSLSIGFVTQSAQKNVGARLYLMASDTTYQEFTLLGNEFSFDVDVSQLPCGLNGALYFVSMDADGGVSKYPTNTAGAKYGTGYCDSQCPRDLKFINGQANVEGWEPSSNNANTGIGGHGSCCSEMDIWEANSISEALTPHPCTTVGQEICEGDGCGGTYSDNRYGGTCDPDGCDWNPYRLGNTSFYGPGSSFTLDTTKKLTVVTQFETSGAINRYYVQNGVTFQQPNAELGSYSGNELNDDYCTAEEAEFGGSSFSDKGGMTQFKKATSGGMVLVMSLWDDYYANMLWLDSTYPTNETSSTPGAVRGSCSTSSGVPAQVESQSPNAKVTFSNIKFGPIGSTGNPSGGNPPGGNPPGTTTTRRPATTTGSSPGPTQSHYGQCGGIGYSGPTVCASGTTCQVLNPYYSQCL
Consider B2, for which the kcat in data set [2] came out at 0.182 ± 0.00333 s⁻¹.

B3: Trichoderma reesei Cel7A (TrCel7A, SEQ ID NO: 37) variant 11-35a, G461D (with secretion signal) / G444D (without secretion signal) (Trichoderma reesei RUT … (protein)
chain: QSACTLQSETHPPLTWQKCSSGGTCTQQTGSVVIDANWRWTHATNSSTNCYDGNTWSSTLCPDNETCAKNCCLDGAAYASTYGVTTSGNSLSIGFVTQSAQKNVGARLYLMASDTTYQEFTLLGNEFSFDVDVSQLPCGLNGALYFVSMDADGGVSKYPTNTAGAKYGTGYCDSQCPRDLKFINGQANVEGWEPSSNNANTGIGGHGSCCSEMDIWEANSISEALTPHPCTTVGQEICEGDGCGGTYSDNRYGGTCDPDGCDWNPYRLGNTSFYGPGSSFTLDTTKKLTVVTQFETSGAINRYYVQNGVTFQQPNAELGSYSGNELNDDYCTAEEAEFGGSSFSDKGGLTQFKKATSGGMVLVMSLWDDYYANMLWLDSTYPTNETSSTPGAVRGSCSTSSGVPAQVESQSPNAKVTFSNIKFGPIGSTGNPSGGNPPGGNPPDTTTTRRPATTTGSSPGPTQSHYGQCGGIGYSGPTVCASGTTCQVLNPYYSQCL
Regarding B3, the kcat in data set [3] worked out at 0.183 s⁻¹.

B4: Trichoderma reesei Cel7A (TrCel7A, SEQ ID NO: 37) variant 6-53a, I110M/Y283N/T462I (with secretion signal) / I93M/Y266N/T445I (without secretion signal) … (protein)
chain: QSACTLQSETHPPLTWQKCSSGGTCTQQTGSVVIDANWRWTHATNSSTNCYDGNTWSSTLCPDNETCAKNCCLDGAAYASTYGVTTSGNSLSMGFVTQSAQKNVGARLYLMASDTTYQEFTLLGNEFSFDVDVSQLPCGLNGALYFVSMDADGGVSKYPTNTAGAKYGTGYCDSQCPRDLKFINGQANVEGWEPSSNNANTGIGGHGSCCSEMDIWEANSISEALTPHPCTTVGQEICEGDGCGGTYSDNRYGGTCDPDGCDWNPNRLGNTSFYGPGSSFTLDTTKKLTVVTQFETSGAINRYYVQNGVTFQQPNAELGSYSGNELNDDYCTAEEAEFGGSSFSDKGGLTQFKKATSGGMVLVMSLWDDYYANMLWLDSTYPTNETSSTPGAVRGSCSTSSGVPAQVESQSPNAKVTFSNIKFGPIGSTGNPSGGNPPGGNPPGITTTRRPATTTGSSPGPTQSHYGQCGGIGYSGPTVCASGTTCQVLNPYYSQCL
Consider B4, for which the kcat in data set [4] worked out at 0.35 ± 0.05 s⁻¹.

B5: Trichoderma reesei Cel7A (TrCel7A, SEQ ID NO: 37) variant 6-87a, D274V (with secretion signal) / D257V (without secretion signal) (Trichoderma reesei RUT C-30; … (protein)
chain: QSACTLQSETHPPLTWQKCSSGGTCTQQTGSVVIDANWRWTHATNSSTNCYDGNTWSSTLCPDNETCAKNCCLDGAAYASTYGVTTSGNSLSIGFVTQSAQKNVGARLYLMASDTTYQEFTLLGNEFSFDVDVSQLPCGLNGALYFVSMDADGGVSKYPTNTAGAKYGTGYCDSQCPRDLKFINGQANVEGWEPSSNNANTGIGGHGSCCSEMDIWEANSISEALTPHPCTTVGQEICEGDGCGGTYSDNRYGGTCVPDGCDWNPYRLGNTSFYGPGSSFTLDTTKKLTVVTQFETSGAINRYYVQNGVTFQQPNAELGSYSGNELNDDYCTAEEAEFGGSSFSDKGGLTQFKKATSGGMVLVMSLWDDYYANMLWLDSTYPTNETSSTPGAVRGSCSTSSGVPAQVESQSPNAKVTFSNIKFGPIGSTGNPSGGNPPGGNPPGTTTTRRPATTTGSSPGPTQSHYGQCGGIGYSGPTVCASGTTCQVLNPYYSQCL
For B5, the kcat in data set [5] came to 0.4 ± 0.0667 s⁻¹.

B6: Trichoderma reesei Cel7A (TrCel7A) wild-type, SEQ ID NO: 37 (Trichoderma reesei RUT C-30) (protein)
chain: QSACTLQSETHPPLTWQKCSSGGTCTQQTGSVVIDANWRWTHATNSSTNCYDGNTWSSTLCPDNETCAKNCCLDGAAYASTYGVTTSGNSLSIGFVTQSAQKNVGARLYLMASDTTYQEFTLLGNEFSFDVDVSQLPCGLNGALYFVSMDADGGVSKYPTNTAGAKYGTGYCDSQCPRDLKFINGQANVEGWEPSSNNANTGIGGHGSCCSEMDIWEANSISEALTPHPCTTVGQEICEGDGCGGTYSDNRYGGTCDPDGCDWNPYRLGNTSFYGPGSSFTLDTTKKLTVVTQFETSGAINRYYVQNGVTFQQPNAELGSYSGNELNDDYCTAEEAEFGGSSFSDKGGLTQFKKATSGGMVLVMSLWDDYYANMLWLDSTYPTNETSSTPGAVRGSCSTSSGVPAQVESQSPNAKVTFSNIKFGPIGSTGNPSGGNPPGGNPPGTTTTRRPATTTGSSPGPTQSHYGQCGGIGYSGPTVCASGTTCQVLNPYYSQCL
Take B6: the kcat in data set [6] amounted to 0.333 ± 0.0167 s⁻¹.

B7: Trichoderma reesei Cel7A (TrCel7A, SEQ ID NO: 37) variant 2-18c, T406S/A389V (with secretion signal) / T389S/A372V (without secretion signal) (Trichoderma … (protein)
chain: QSACTLQSETHPPLTWQKCSSGGTCTQQTGSVVIDANWRWTHATNSSTNCYDGNTWSSTLCPDNETCAKNCCLDGAAYASTYGVTTSGNSLSIGFVTQSAQKNVGARLYLMASDTTYQEFTLLGNEFSFDVDVSQLPCGLNGALYFVSMDADGGVSKYPTNTAGAKYGTGYCDSQCPRDLKFINGQANVEGWEPSSNNANTGIGGHGSCCSEMDIWEANSISEALTPHPCTTVGQEICEGDGCGGTYSDNRYGGTCDPDGCDWNPYRLGNTSFYGPGSSFTLDTTKKLTVVTQFETSGAINRYYVQNGVTFQQPNAELGSYSGNELNDDYCTAEEAEFGGSSFSDKGGLTQFKKATSGGMVLVMSLWDDYYVNMLWLDSTYPTNETSSSPGAVRGSCSTSSGVPAQVESQSPNAKVTFSNIKFGPIGSTGNPSGGNPPGGNPPGTTTTRRPATTTGSSPGPTQSHYGQCGGIGYSGPTVCASGTTCQVLNPYYSQCL
Turning to B7, in data set [7], the Km was 1980 ± 180 µM and the turnover number (kcat) came to 0.467 ± 0.117 s⁻¹.

By kcat is commonly meant the number of substrate molecules converted per active site and unit of time at saturation. What is called Km is the concentration of substrate that gives half-maximal velocity.
